Assay [1] concerns the target T1, human ZnT8 over-expressed in HEK293 cells (human, UniProt Q8IWU4 1-369).
T1 construct: whole, on cells; Cells were fixed and permeabilized for immunofluorescence and flow cytometry (intracellular staining); The same id is used for the detergent lysates of over-expressing cells in the HTRF assay; also called ZnT8(+) HEK293 cells; HEK293 cells stably expressing human ZnT8
T1 sequence (looked up): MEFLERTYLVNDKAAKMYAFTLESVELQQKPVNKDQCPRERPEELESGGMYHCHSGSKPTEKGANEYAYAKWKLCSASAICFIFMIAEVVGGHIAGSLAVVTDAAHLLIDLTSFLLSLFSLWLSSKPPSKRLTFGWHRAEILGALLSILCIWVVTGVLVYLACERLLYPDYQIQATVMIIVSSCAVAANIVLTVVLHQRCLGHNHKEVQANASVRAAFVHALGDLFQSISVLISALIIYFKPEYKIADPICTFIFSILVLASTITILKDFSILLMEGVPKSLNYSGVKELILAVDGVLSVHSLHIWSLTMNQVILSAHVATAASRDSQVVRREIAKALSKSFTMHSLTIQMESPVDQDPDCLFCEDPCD
Kind of assay: flow cytometry of fixed and permeabilized HEK293 cells, mean fluorescence against antibody concentration. An excerpt:
FIG. 6A-6C. mAb binding affinity. (FIG. 6A) Representative confocal microscopy images of immunofluorescence staining of fixed and saponin-permeabilized HEK293 cells with mAb20 or mAb39 staining as indicated. ZnT8(+) or ZnT8(−) denotes HEK293 cells w/o ZnT8 over-expression. Red: mAb20 or mAb39 staining, blue: DAPI, scale bar: 5 um. (FIG. 6B) Histograms of flow cytometry counting events. Arrows indicate leftward shifts of the histogram as a result of mAb serial dilutions. (FIG. 6C) mAb binding to HEK293 cells w/o ZnT8 overexpression as indicated. Immunofluorescence intensities of mAb20 or mAb39 labeling in serial dilutions were obtained from (FIG. 6B). Solid lines are least-squares fits of the binding data to a one-component binding process.
Flow cytometry analysis. HEK293 cells w/o ZnT8 over-expression were fixed, permeabilized, and resuspended in PBS plus 5% BSA at a density of 1×10⁶/ml as described previously (43). Aliquots of 100 μl cell suspension were stained with mAb20 or mAb39 in 3-fold serial dilutions for 2 hours at RT, and then stained with Alexa fluor 647-conjugated donkey-anti-mouse secondary antibody in 1:1000 dilution with 5% BSA (Thermo Fisher Scientific, cat. #A31571). The labeled cells were analyzed immediately by flow cytometry. […]
Binding affinity. […] No mAb staining was detected in parental HEK293 cells without ZnT8 over-expression. […]
Background: Flow cytometry measures light scatter and fluorescence of single cells or particles in a stream.

For assay [2], the target named is T2, human ZnT8-His (human, UniProt Q8IWU4-2 1-320, limits assumed).
T2 construct: Over-expressed in HEK293 cells, solubilized with DDM and immobilized on Ni-NTA plates (native or unfolded with 2% SDS), or SDS-denatured on immunoblots; also called human ZnT8 with C-terminal poly-histidine tag; not shown: C-terminal poly-histidine tag
T2 sequence (looked up): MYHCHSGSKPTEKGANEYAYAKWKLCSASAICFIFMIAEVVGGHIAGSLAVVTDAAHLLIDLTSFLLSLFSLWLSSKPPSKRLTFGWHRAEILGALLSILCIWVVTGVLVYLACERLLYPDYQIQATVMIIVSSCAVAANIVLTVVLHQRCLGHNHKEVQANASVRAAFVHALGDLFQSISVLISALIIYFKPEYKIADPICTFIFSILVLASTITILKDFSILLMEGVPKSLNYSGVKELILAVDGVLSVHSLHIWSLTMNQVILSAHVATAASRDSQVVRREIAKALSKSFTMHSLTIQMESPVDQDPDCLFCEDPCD
The experiment in a line: ELISA titration on ZnT8-His immobilized on Ni-NTA plate; apparent binding affinity, one-component fit; DDM-solubilized human ZnT8 immobilized to Ni-NTA plate via His-tag; mAb titration. An excerpt: FIG. 7A-7D. mAb binding specificities (FIG. 7A) mAb binding to ZnT8-His immobilized to Ni-NTA plate. Bound mAb20 (red) or mAb39 (magenta) was detected by an HRP-conjugated secondary antibody. Solid lines are least-squares fits of binding datapoints to a one-component binding process. Error bars are standard errors (n=8). (FIG. 7B) SDS-denatured mouse ZnT8-His (labeled as M) and human ZnT8-His (labeled as H) on immunoblots were detected by mAb20 or mAb39 as indicated. […] (FIG. 7C) Detection of endogenous human ZnT8 in EndoC-βH cells by mAb20 or […] immunoblotting. An equal amount of EndoC-βH lysate (5 μg total protein) was loaded to each lane. (FIG. 7D) Immunoblotting of HEK lysates with or with over-expression of a ZnT homolog as indicated. An approximately equal amount of total lysate protein (5 μg) was located to each lane, probed by either mAb20, mAb39, or anti-FALG antibody as indicated. FIG. 8. HTRF response to human ZnT8, mouse ZnT8 and human ZnT3.
Binding specificities. […] Of note, the epitope-masking effect of ZnT8 immobilization weakened the apparent binding affinities of both mAbs as compared to the affinities determined by flow-cytometry, and such a weakening effect was more pronounced for mAb39, probably due to a closer proximity of the mAb39 epitope to the C-terminal His-tag. Next, we compared the immunoreactivities of mAbs to denatured ZnT8.
For orientation: An ELISA detects its analyte on a solid surface through an enzyme-linked reagent.

Broadly, the EC50 (read off the curve) is the concentration needed to bring the measured effect to its halfway point.

B1: mAb20 (antibody, V domains shown)
VH: QIQLVQSGPELKKPGETVKISCKASGYIFTNYPMHWVKQAPGKGLKWMGWINTYSGVPTHADDFKGRFAFSLETSANSAFLQINNLKNEDTATYFCTRSRITPTGGYAMDYWGQGTSVTVSS
VL: DVVMTQTPLSLPVSLGDQASISCRSSQSLVHSNGNTYLHWYLQKPGQSPNLLISKVSNRFSGVPERFSGSGSGTDFTLKISRVEAEDLGVYFCSQNTHVPWTFGGGTKLEIKR
notes: Mouse hybridoma mAb purified on protein A/G; In some assays it was labelled with Alexa Fluor 488 or terbium cryptate; also called monoclonal antibody mAb20; anti-ZnT8 mAb20
On to B1, for which the “EC50 (read off the curve)” value in assay [1] was approximately 0.1 µg/mL. Moreover, in assay [2], the Kd stood at 2.5 nM.

B2: mAb39 (antibody, V domains shown)
VH: QVQLQQPGAELVKPGASVKLSCKASGYSFTTYWMHWVKQRPGQGLEWVGDINPRNGRTNYNEKSKSKATLTVDISSSTVYMQVSSLTSEDSAVYYCAIWSGAMDYWGPGTSVTVSS
VL: DVVMTQTPLSLPVSLGDQPSISCKSSQSLVHNNGNTYLHWYLQKPGQSPKLLIYKVSNRFSGVPDRFSGSGSGTDFTLKISRVEAEDLGVYFCSQTTHVPPTFGGGTKLEIKR
notes: Mouse hybridoma mAb purified on protein A/G; In some assays it was labelled with Alexa Fluor 555 or d2; also called monoclonal antibody mAb39; anti-ZnT8 mAb39
For the molecule B2, in assay [1], the “EC50 (read off the curve)” value is approximately 0.1 µg/mL. Also, in assay [2], the Kd was found to be 17.6 nM.

These data come from patent US20210238279A1 (Johns Hopkins, published 2021).
